Laboratory results from patent US10704056B2, “Constitutively active ABA receptor mutants” (The Regents of the University of California, priority 2011, dated 2020).

What was measured:
[1] = test system: aba2-1 mutant seeds; assay: Germination of aba2-1 background seeds on paclobutrazol or NaCl; format: in vivo, Arabidopsis; details: 35S-driven transgene, germination 72 hours
Excerpt: As a further test of the ability of PYL2^CA3 to activate ABA signaling in vivo, we examined the ability of this allele to revert phenotypes caused by ABA deficiency, reasoning that effective activation of the ABA pathway should suppress phenotypes observed in the aba2 mutant. […] To test this, we examined the germination of various genotypes on paclobutrazol, an inhibitor of GA biosynthesis. Wild-type seed germination is blocked by paclobutrazol treatment but aba2 mutants germinate due to defects in ABA-induced seed dormancy. We also examined the germination of various genotypes in the presence of NaCl, which, like paclobutrazole, inhibits seed germination in an ABA- and aba2-dependent manner (Gonzalez-Guzman M. et al. (2002) Plant Cell 14(8):1833-1846; Leon-Kloosterziel K M, et al. (1996) Plant J 10 (4):655-661). […] Thus, expression of PYL2^CA3 in developing seeds is sufficient to activate an ABA-dependent physiological process despite the depleted ABA levels present in the aba2 background.
Germination tests on paclobutrazol (Wako Chemicals, Japan) and NaCl were conducted as following. Columbia, aba2-1, aba2-1; 35S::GFP-PYL2 and aba2-1; 35S::GFP-PYL2″^3 seeds were surface sterilized and plated onto ⅓ MS agar media containing 25, 50 or 100 μM paclobutrazol or 0, 50, 200, 250 mM NaCl. Control wells contained ⅓ MS agar and 0.1% DMSO, the carrier solvent for paclobutrazol. The seeds were stratified for four days in darkness and then transferred to continuous illumination at room temperature (23° C.). Germination was assayed after 72 hours; seeds showing radicals at least ½ seed length or greater were scored as positive. Each experiment was performed in triplicate; experiments were performed on seeds that were ˜6-months post-harvest.

[2] = test system: HAB1; assay: In vitro PP2C phosphatase (pNPP) receptor activation assay with HAB1; format: biochemical, Arabidopsis; details: 600 nM GST-HAB1, 0-4800 nM receptor, no ABA
Protocol: Recombinant receptor proteins were produced as follows: Coding sequences were cloned into pET28 yielding 6×HIS (SEQ ID NO:173) fusions proteins and transformed into E. coli expression strain BL21. […]. Cells were stored at −80° C. before purification. After thawing, cells were sonicated on ice five times for 30 sec with 30 sec resting intervals. A cleared lysate was obtained after centrifugation at 12,000×g for 10 min and applied to 1 ml of Ni-NTA column (Qiagen) and washed with 20 column volumes of Buffer A containing 30 mM imidazole. Bound protein was eluted with 10 ml of Buffer A with 250 mM imidazole. The elutate was dialyzed against TBS. The purified recombinant proteins were then used together with recombinant phosphatases in receptor assays. In these assays, receptor activity is indicated by inhibition of phosphatase activity, as inferred from initial reaction velocities for GST-HAB1 mediated hydrolysis of the synthetic phosphatase substrate pNPP. Reactions contained 600 nM GST-HAB1 and either 0, 600, 1200, 2400 or 4800 nM 6×His-PYR1 or variants in a reaction buffer consisting of 33 mM Tris-OAc, pH 7.9, 66 mM KOAc, 0.1% BSA, 25 mM Mn(OAc)2, 50 mM pNPP. To infer the level of receptor activation with respect to fully activated wild type receptor, control reactions were also conducted using saturating levels of (+)-ABA (10 μM), and 600 nM wild type PYR1 and HAB1. Immediately after mixing proteins and substrates, reactions were monitored for hydrolysis of pNPP at A405 at ˜10 second intervals over 20 minutes using a Wallac plate reader. Reaction progressions were plotted, initial velocities calculated and converted to specific activities using a standard curve for 4-nitrophenol made in the same buffer system volumes/plate reader used for enzymatic reaction measurements. The values shown are expressed as %-control phosphatase activity levels as measured in the absence of receptor protein. The average specific activity level of GST-HAB1 utilized in our experiments was 4000 μmol/min/mg, when assayed on the phosphatase substrate pNPP in the absence of PYR1 or other receptors, as described using the methods above.
Full length ABI1 and ABI2 were cloned into a modified pSUMO vector (LifeSensors Inc, USA) vector yielding 6×His-SUMO fusion proteins; GST-HAB1 was expressed and purified as previously described (Park et al., 2009). Mutant receptors were cloned into pET28 yielding 6×His-fusion proteins. […]. The cultures were pre-incubated 2 hours at 30° C. and, for PP2C expression, media was supplemented with 4 mM MnCl2 one hour after inoculation. After pre-incubation, IPTG was added (1 mM) and cells were induced at 15° C. for 16 hours, after which they were collected by centrifugation, resuspended in 5 ml Buffer A (50 mM NaH2PO4, 300 mM NaCl) +10 mM imidazole, pH 8.0 and stored at −80° C. For purification, cells were thawed, sonicated on ice (60 seconds) and a cleared lysate was then applied a 1 ml-bed volume column of Ni-NTA (Qiagen, USA), washed with 20 column volumes of Buffer A+30 mM imidazole and bound protein eluted with 1 ml of Buffer A+250 mM imidazole. For receptors, the elutate was dialyzed against TBS and for PP2Cs, fusion proteins were desalted by passage over a Sephadex G50 column.
The purified receptors and phosphatases were then used in receptor assays where receptor activation is indicated by inhibition of phosphatase activity, as inferred from initial reaction velocities for PP2C-mediated hydrolysis of the synthetic phosphatase substrate pNPP in reactions containing 600 nM PP2C and either 0, 600, 1200, 2400 or 4800 nM receptor. The receptor assay buffer consisted of 33 mM Tris-OAc, pH 7.9, 66 mM KOAc, 0.1% BSA, 25 mM Mn(OAc)2, 0.1%13-ME and 50 mM pNPP. Immediately after mixing proteins and substrates, reactions were monitored for hydrolysis of pNPP at A405 at ˜2 minutes intervals using a Wallac plate reader. […]

B1: PYL2^CA3: PYL2 mutant (H65P, V87F, F165V); expressed in plants as 35S-driven GFP fusion (protein)
chain: HHHHHHMSSSPAVKGLTDEEQKTLEPVIKTYHQFEPDPTTCTSLITQRIHAPASVVWPLIRRFDNPERYKPFVKRCRLISGDGDVGSVREVTFISGLPASTSTERLEFVDDDHRVLSFRVVGGEHRLKNYKSVTSVNEFLNQDSGKVYTVVLESYTVDIPEGNTEEDTKMVVDTVVKLNLQKLGVAATSAPMHDDE
- NaCl resistance of aba2 mutant seed germination [1]: suppressed
- paclobutrazol resistance of aba2 mutant seed germination [1]: suppressed
- basal receptor activity (inhibition of HAB1 phosphatase activity in the absence of ABA) [2]: highly activated in the absence of ABA
